# Measurements published in patent US7842460.
# Legend:
# [1] = molecular target: ISG15-PLA2mX fusion (mouse) (UniProt Q9QXX3); test: cell-based or functional assay
# [2] = molecular target: T1, Ubiquitin-PLA2mX fusion (UniProt Q9QXX3)
# T1 sequence: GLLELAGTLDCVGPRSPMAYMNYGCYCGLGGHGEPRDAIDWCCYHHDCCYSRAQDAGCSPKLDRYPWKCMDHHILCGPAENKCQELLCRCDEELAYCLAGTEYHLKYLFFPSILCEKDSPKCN
"rate of PLA2 activity (fluorescent lipid substrate), extracts of UBP43-transfected against non-transfected HEK293T cells [1] [fold]",Substance,"Ratio of PLA2 activity, fusion with isopeptidase over fusion without [2]","cleavage of the fusion by SDS-PAGE (10 ug fusion, 3 ug core domain of USP2) [2]"
4,"UBP43, the ISG15-specific isopeptidase (enzyme)",–,–
–,"core domain of USP2 (shared core enzymatic domain of the spliced USP2 product, either USP2a or USP2b)",9.37,complete cleavage of the fused Ub-PLA2mX was seen
